Here are results for 6 molecules from US20230331827A1, “POTASSIUM CHANNEL INHIBITORS” (priority 2017, published 2023).

A word on the IC50: it is the midpoint of a concentration-inhibition curve. A high value points to lower potency.

Where a chain is given by its changes, count along the chain named.

The target in one experiment is T1, huKv1.3 (Homo sapiens, UniProt P22001).
T1 construct: host or cells: CHO
Put plainly: QPatch automated whole-cell patch-clamp, CHO cells stably expressing huKv1.3 (Example 8). Type of experiment: cell-based. The protocol: (§1) Knottin Kv 1.3 and ASIC1a blockers expressed in the KnotBody format (see examples 6 and 7) were tested for their ability to inhibit the function of the ion channel targets. The effect of these KnotBodies on cells expressing the human Kv 1.3 (huKv1.3) or human ASIC1a channels was assessed using QPatch automated whole-cell patch-clamp electrophysiology (Sophion).
For the testing of Kv1.3, CHO cells stably expressing huKv1.3 (Charles River Lab) were analysed using the QPatch electrophysiology assay in the presence or absence of the KnotBody fusions or the antibody isotypes (negative) controls. Internal and external physiological solutions were freshly prepared prior to the assay. The extracellular solution contained 145 mM NaCl, 4 mM KCl, 2 mM CaCl2, 1 mM MgCl2, 10 mM HEPES and 10 mM glucose; the pH was adjusted to 7.4 with NaOH; the osmolarity was ~ 305 mOsm/L. The intracellular solution contained: KF (120 mM), KCl (20 mM), HEPES (10 mM) and EGTA (10 mM); the pH was adjusted to 7.2 with KOH; osmolarity was ~ 320 mOsm/L.
A series of depolarising voltage (channel activating) pulses were used to monitor the channel currents upon adding control (extracellular solution) to define a control baseline of current activity. To these measured control currents ascending concentrations of KnotBodies or parental antibody isotypes (control molecules) were applied to the external bathing solution (2.2 µM - 0.5 nM, diluted in the extracellular solution). KnotBodies KB_A12 and KB_A07 (EETI-II fusions) were used as isotype controls for the testing. From a holding voltage of -80 mV a depolarising, activating voltage pulses of +30 or +80 mV were applied for 300 ms, every 5 or 10 seconds. The elicited, maximum outward current values measured during the activating step for each solution exchange period were averaged (n = 3 - 8 for each concentration applied) and plotted as concentration-response curves. KB_A07_ShK, KB_A12_ShK and KB_A07_Kaliotoxin (KTX) fusion proteins all inhibited the huKv1.3 currents in a concentration dependent manner with IC50S of approximately 20 nM, 40 nM and 900 nM respectively.
Background: In patch-clamp work, channel activity is measured electrically.

The target in another experiment is T2, huASIC1a (Homo sapiens, UniProt P78348).
T2 construct: host or cells: HEK293
T2 sequence (P78348 1-528): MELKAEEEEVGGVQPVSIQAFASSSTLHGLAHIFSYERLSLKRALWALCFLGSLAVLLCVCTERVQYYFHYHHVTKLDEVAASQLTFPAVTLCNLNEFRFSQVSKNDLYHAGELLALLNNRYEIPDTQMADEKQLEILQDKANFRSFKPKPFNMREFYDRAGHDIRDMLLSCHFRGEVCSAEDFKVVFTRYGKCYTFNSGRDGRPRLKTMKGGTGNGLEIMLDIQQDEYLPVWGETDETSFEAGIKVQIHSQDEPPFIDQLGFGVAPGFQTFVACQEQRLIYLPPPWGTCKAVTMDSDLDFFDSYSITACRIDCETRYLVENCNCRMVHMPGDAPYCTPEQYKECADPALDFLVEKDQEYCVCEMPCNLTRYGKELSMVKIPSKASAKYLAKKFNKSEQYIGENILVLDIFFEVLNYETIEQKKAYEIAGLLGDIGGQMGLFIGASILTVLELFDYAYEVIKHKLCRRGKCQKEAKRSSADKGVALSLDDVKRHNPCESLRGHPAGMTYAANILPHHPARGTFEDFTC
Put plainly: QPatch electrophysiology, HEK293 cells stably expressing huASIC1a. The format is cell-based. The settings on record: ASIC1a current at pH 6.0 after 15-20 minutes KnotBody pre-incubation, 2.3-6.6 µM. The protocol: as §1
To functionally assess the ASIC1a KnotBodies, HEK293 cells stably expressing huASIC1a (Sophion) were analysed using a QPatch electrophysiology assay in the presence or absence of the KnotBody fusions (using KB_A12 as a recipient and replacing the original EETI-II donor as shown in Table 8). The “parental” KB_A12 with the EETI-II donor was used as a negative control. Internal and external physiological solutions were freshly prepared prior to the assay. The extracellular solution contained 145 mM NaCl, 4 mM KCl, 2 mM CaCl2, 1 mM MgCl2, 10 mM HEPES and 10 mM glucose; the pH was adjusted to 7.4 with NaOH (for control, resting-state pH) or 6.0 with MES (for acidic, activating-state pH); the osmolarity was ~ 305 mOsm/L. The intracellular solution contained: CsF (140 mM), HEPES (10 mM), NaCl (10 mM) and EGTA/CsOH (1 mM/5 mM); the pH was adjusted to 7.3 with CsOH; osmolarity was ~ 320 mOsm/L.
Throughout ASIC 1a recordings the recording cell membrane voltage was clamped at -60 mV. ASIC1a baseline control currents were elicited by applying external solution at activating pH 6.0 for 3000 ms. This activating pH application was repeated three further times, giving four baseline control ASIC1a currents. The recording cells were then pre-incubated with KnotBody diluted in external solution at pH 7.4 for 15-20 minutes. Following this KnotBody pre-incubation the same concentration of KnotBody in external solution at activating pH 6.0 was applied to the cell recording.
At the end of each KnotBody incubation and subsequent ASIC1a current activation, a full blocking concentration (300 nM) of the ASIC1a knottin inhibitor PcTx1 (positive control) was perfused onto the cell recording and a final activating pH 6.0 external solution was applied. The percentage remaining signal between activating pH 6.0 baseline (i.e. pre-KnotBody) and post-KnotBody incubation was determined.

The mark [1] stands for this setting: Kv1.3 channels, IgG KnotBody, Table 11A.
[2] abbreviates: huKv1.3 currents, text of Example 8, approximately.

T1 sequence (P22001 whole entry): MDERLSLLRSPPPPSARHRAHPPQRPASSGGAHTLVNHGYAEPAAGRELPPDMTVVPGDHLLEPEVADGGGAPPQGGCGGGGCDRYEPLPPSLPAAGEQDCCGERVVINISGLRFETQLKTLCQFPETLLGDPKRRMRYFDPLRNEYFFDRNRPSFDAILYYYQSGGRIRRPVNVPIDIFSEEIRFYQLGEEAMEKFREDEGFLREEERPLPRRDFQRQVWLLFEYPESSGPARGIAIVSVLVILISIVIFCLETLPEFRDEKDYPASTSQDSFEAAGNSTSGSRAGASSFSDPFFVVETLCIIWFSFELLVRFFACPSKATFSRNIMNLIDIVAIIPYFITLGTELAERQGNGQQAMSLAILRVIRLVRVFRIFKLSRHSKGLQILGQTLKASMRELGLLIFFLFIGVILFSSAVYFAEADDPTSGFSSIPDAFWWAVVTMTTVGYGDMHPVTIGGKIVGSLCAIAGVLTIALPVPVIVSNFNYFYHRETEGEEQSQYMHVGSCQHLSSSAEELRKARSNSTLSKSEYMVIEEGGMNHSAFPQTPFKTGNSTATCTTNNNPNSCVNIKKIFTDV

B1: KB_A07_ShK: ShK toxin in VL CDR2 of KB_A07, IgG1 (antibody, V domains shown)
VH: EVQLVESGGGLVRPGGSLRLSCAASGFTFSSYAMSWVRQAPGKGLEWVSAISGSGGSTYYADSVKGRFTISRDNTKNSLYLQMTSLRADDTAFYYCVKDFGPGYGTGWFDYWGPGTLVTVSS
VL: DIQMTQSPSSLSASVGDRVTITCRASQSISSYLNWYQQKPGKAPKLLIYAAGVRSCIDTIPKSRCTAFQCKHSMKYRLSFCRKTCGTCSRSGVPSRFSGSGSGTDFTLTISSLQPEDFATYYCQQGASPPYTFGQGTKVEIKR
B1: the IC50 was 40 nM in the experiment with huKv1.3 (setting [1]) and around 20 nM with huKv1.3 (setting [2]).

B2: KB_A07_KTX: kaliotoxin in VL CDR2 of KB_A07, IgG1 (antibody, V domains shown)
VH: B1 VH
VL: DIQMTQSPSSLSASVGDRVTITCRASQSISSYLNWYQQKPGKAPKLLIYAAGVGVEINVKCSGSPQCLKPCKDAGMRFGKCMNRKCHCTPKSRSGVPSRFSGSGSGTDFTLTISSLQPEDFATYYCQQGASPPYTFGQGTKVEIKR
For B2, the IC50 in the experiment with huKv1.3 (setting [1]) was 900 nM; with huKv1.3 (setting [2]) it was around 900 nM.

B3: KB_A12_PcTx1: PcTx1 in VL CDR2 of KB_A12 (antibody)
VH: B1 VH
VL: QSVLTQPPSVSEAPRQRVTITCSGSSSNIGNNAVNWYQQLPGKAPKLLIYAAGREDCIPKWKGCVNRHGDCCEGLECWKRRRSFEVCVPKTPKTANSGVSDRFSAAKSGTSASLAINGLRSEDEADYYCAAWDDSLNGYVFGTGTKLTVLG
As for B3, the “% current remaining” value in the experiment with huASIC1a is given as 4.8%.

B4: KB_A12_Mba-1: Mambalgin-1 in VL CDR2 of KB_A12 (antibody)
VH: B1 VH
VL: QSVLTQPPSVSEAPRQRVTITCSGSSSNIGNNAVNWYQQLPGKAPKLLIYAAGRLKCYQHGKVVTCHRDMKFCYHNTGMPFRNLKLILQGCSSSCSETENNKCCSTDRCNKANSGVSDRFSAAKSGTSASLAINGLRSEDEADYYCAAWDDSLNGYVFGTGTKLTVLGQP
Take B4: the “% current remaining” value in the experiment with huASIC1a was “same level of current as the KB_A12 negative control”; with huASIC1a (listed as KB A12 Mba-1), 69.2%.

B5: KB_A12_Mba-2: Mambalgin-2 in VL CDR2 of KB_A12 (antibody)
VH: B1 VH
VL: B4 VL with Y58F
For the molecule B5, the figures for the “% current remaining” value with huASIC1a and with huASIC1a (listed as KB A12 Mba-2) were “same level of current as the KB_A12 negative control” and 72.4%, respectively.

B6: KB_A07_PcTx1: PcTx1 in VL CDR2 of KB_A07 (antibody, V domains shown)
VH: B1 VH
VL: DIQMTQSPSSLSASVGDRVTITCRASQSISSYLNWYQQKPGKAPKLLIYAAGVEDCIPKWKGCVNRHGDCCEGLECWKRRRSFEVCVPKTPKTSRSGVPSRFSGSGSGTDFTLTISSLQPEDFATYYCQQGASPPYTFGQGTKVEIKR
On to B6, for which the “% current remaining” value with huASIC1a was found to be 4.8%; with huASIC1a (listed as KB A07 PcTx1) it was 6.2%.
